± gives the standard deviation.
Assay: protein stability index of a GFP-peptide fusion (GPS, HEK-293T) (PSI 1-6); higher = more stable
Conditions: c terminus: a fixed tail appended
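Also: 24-mer peptide tiles fused after GFP, lentivirally expressed, FACS-sorted into six equal bins by GFP/DsRed ratio, decoded by Illumina sequencing, PSI is the read-weighted mean bin number.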

Row | Sequence | protein stability index (treatment: DMSO) | protein stability index (treatment: MLN4924 1 uM, 8 h)
1 | TGACGEAMAAAEGSSGPAGLTLGR [SEPHS2] | 3.78 ± 0.082 | 3.87 ± 0.055
2 | AQKESLQNQHHSASLQASIFSGAA [APBB1IP] | 4.03 ± 0.22 | 3.98 ± 0.26
3 | NQIMPKTGFLIIILAIIAKEGDCA [MAGEA6] | 2.98 ± 0.45 | 2.47 ± 0.61
4 | IQFKKHEEEGIETQYFAELLMTSG [CNOT7] | 2.82 ± 0.21 | 2.82 ± 0.35
5 | ELPNGSVKEAPAPTPTSLEVSSPP [PDZK1] | 5.04 ± 0.12 | 5.09 ± 0.17
6 | WSRLEEFDVFSPKQDLVPGSPDDS [DLC1] | 4.45 ± 0.27 | 4.87 ± 0.38
7 | KERLLLSAAVPAGQTYVDAGYEVD [CHIT1] | 4.67 ± 0.15 | 4.67 ± 0.12
8 | KTDFGSCLLQPPSCPNGMSAENGL [DLC1] | 3.94 ± 0.14 | 3.87 ± 0.19
9 | VSPGGVKLEISTKEVPVVHTETKT [EPB41L3] | 4.88 ± 0.29 | 5 ± 0.3
10 | MTPAEAEMHFLENAKKLSMYGVDL [EPB41L3] | 3 ± 0.29 | 3.03 ± 0.52
11 | SQKVLGLNEDPLKWWSDRLALFPL [ZBED1] | – | 2.14 ± 0.63
12 | KSFSMANGLNARMMHGGSYSLTTS [RAB40B] | 3.1 ± 0.2 | 3.18 ± 0.2
13 | RTPLIKLSPKKTWEGFIGGFFSTV [CDS1] | 2.03 ± 0.16 | 1.88 ± 0.37
14 | LNPGFQDATLSLKQTILDKEEKQR [TTC32] | 4.94 ± 0.15 | 4.98 ± 0.17
15 | MAKFGVHRILLLAISLTKCLESTK [MIA2] | 3.27 ± 0.52 | 3.06 ± 0.8
16 | KESMSEADRAQKMDGESEEEQESV [EHMT1] | 5.71 ± 0.35 | 5.59 ± 0.23
17 | MAQTVPPCELPCKEYDVARNTGAY [TEKT4] | 4.16 ± 0.27 | 4.08 ± 0.26
18 | FTGELAESRQTEVVIRDIDERAME [KLHL20] | 4.69 ± 0.21 | 4.89 ± 0.33
19 | SRKGELTPLPETGYWRVRLWNGDK [TRIM39] | 2.63 ± 0.057 | 2.58 ± 0.36
20 | VDSKPELQRVLEHRRRNQLIKKKK [FAM107A] | 4.54 ± 0.2 | 4.61 ± 0.39
21 | LFSKWFSESGKLVTKMFQKIQDLI [TRIP13] | 2.98 ± 0.52 | 2.49 ± 0.39
22 | CAVLDDSIYLVGGYSWSMGAYKSS [KLHL14] | 2.52 ± 0.64 | 2.17 ± 0.64
23 | VEILMILFAFMLVYPKEFHLNRGN [PPEF2] | – | 3.58 ± 0.62

Row | Sequence | protein stability index (treatment: DMSO) | protein stability index (treatment: MLN4924 1 uM, 8 h)
24 | IMDTVGNIWVCYASYVVFRIIYML [SLC19A2] | 2.83 ± 0.41 | 3.12 ± 0.53
25 | QKEQGLSDNILSPVMNGGVQTWTQ [PDZK1] | 2.84 ± 0.5 | 3.32 ± 0.71
26 | TRYSVAGLSPYSDYEFRVVAVNNI [PTPRD] | 2.51 ± 0.35 | 2.61 ± 0.37
27 | TAIKSIEFARKGSCFLINTADRII [RBBP5] | 2.6 ± 0.22 | 2.75 ± 0.78
28 | VHRDLKPENLLLASKSKGAAVKLA [CAMK2D] | 3.58 ± 0.77 | 3.42 ± 0.065
29 | LAHMIAECKKLFQVPEEMSRCRNS [DLC1] | 2.67 ± 0.34 | 2.68 ± 0.34
30 | VLELHHSKLDTTKALNLLPANTQI [VPS39] | 3.03 ± 0.14 | 3.12 ± 0.15
31 | ESFILDQDDLENPMLETASKLLLS [ANKRD17] | 3.99 ± 0.22 | 4.1 ± 0.38
32 | CTQLGSLSALKHAVLGLYLLVFLI [SCARA5] | 2.16 ± 0.24 | 2.05 ± 0.23
33 | HELVWAKMKGFGFWPAKVMQKEDN [ZMYND11] | 3.06 ± 0.37 | 3.09 ± 0.47
34 | QLDWDELETNQQHFHALCHSLLVS [M1AP] | 2.3 ± 0.29 | 2.69 ± 0.45
35 | LPAAEFHGLWDSLVYDVEVKSHLL [TRIP13] | 2.43 ± 0.22 | 2.42 ± 0.2
36 | LYPEGIGARQQQVTTYLHKDYNNL [POMT2] | 3.25 ± 0.15 | 3.35 ± 0.26
37 | CVKNELLPSHPLELSEKNFQLNQD [POMP] | 4.42 ± 0.1 | 4.57 ± 0.14
38 | VDNSCDWALGVCNNSWIRKNSTMV [TRIM43] | 2.49 ± 0.34 | 2.5 ± 0.44
39 | EAPEAELSQAPAEGPDLVPAALGS [HES6] | 5.5 ± 0.31 | 5.41 ± 0.35
40 | DLVMALSAGGHGGLLNDTSAPHLE [KCNA4] | 2.8 ± 0.35 | 2.58 ± 0.26
41 | EEVSSTVHIETFTTRHGEVGSALH [C10orf62] | 4.43 ± 0.36 | 4.57 ± 0.19
42 | FYSAEIICAIEYLHSKEIVYRDLK [PRKX] | 2.96 ± 0.76 | 2.51 ± 0.45
43 | RVMKVEDREGPSSSKLVTKKAPQP [HDAC6] | 4.93 ± 0.26 | 5.14 ± 0.077
44 | AVTPAGVVNKYQINGLQAWLLTHL [DHCR7] | 2.19 ± 0.23 | 2.15 ± 0.16
45 | VEKQADTLNVIELNVQKTVDYTGQ [STX11] | 4.6 ± 0.21 | 4.58 ± 0.15
46 | EKNLLLQNQVDELERKFRCQQEQL [LRRC45] | 4.27 ± 0.31 | 4.34 ± 0.23

Row | Sequence | protein stability index (treatment: DMSO) | protein stability index (treatment: MLN4924 1 uM, 8 h)
47 | HKLVSASTDNIVSQWDVLSGDCDQ [RBBP5] | 4.73 ± 0.18 | 4.68 ± 0.11
48 | TEFTRFLCSSPLEAETPPNGPDCG [ATE1] | 4.66 ± 0.086 | 4.52 ± 0.17
49 | LPVRPQTNALIGGPMPMSMPNVMT [CLINT1] | 3.33 ± 0.11 | 3.38 ± 0.18
50 | KVYTHPKWNTQTKARSYSYPHCTG [ZC2HC1C] | 2.73 ± 0.36 | 2.9 ± 0.39
51 | LQNTYMGYLDYRKKAIKDLGISPS [GLT8D2] | 2.64 ± 0.24 | 2.91 ± 0.16
52 | EAAQVVPDGLGLDEAREEEGDREV [TRIB3] | 5.63 ± 0.15 | 5.43 ± 0.45
53 | VFDAEGYVKPQSCIDIVIRHVAPI [MOSPD3] | 2.19 ± 0.16 | 2.19 ± 0.51
54 | AAFEEFDTDRDGYISHRELGDCMR [CABP4] | 4.25 ± 0.17 | 4.3 ± 0.36
55 | TSASLLNAGLSHTEYQIVTDPGDV [SLC2A12] | 4.42 ± 0.16 | 4.76 ± 0.15
56 | GPDGQEMDPPNPEEVKTPEEEMRS [GAGE1] | 5.7 ± 0.3 | 5.38 ± 0.42
57 | KIENGYPLHAPEAYFPYFKKHNVT [CDC14A] | 2.2 ± 0.19 | 2.32 ± 0.18
58 | RKISSLSFTLEEEEEGGEEEEEAA [FAM50A] | 5.53 ± 0.26 | 5.33 ± 0.26
59 | PARDYSQYYRTIEELQNKILTATV [KRT17] | 2.28 ± 0.2 | 2.34 ± 0.21
60 | RGAPAVQQNIPSTLLQDHENQRLF [WAS] | 4.25 ± 0.2 | 4.29 ± 0.15
61 | LDYSFGDHTSEAVRNLFGLDPSSG [PCDHGC5] | 3.55 ± 0.13 | 3.54 ± 0.38
62 | LYSMECAFHPLFSLTSGACRLDYR [TCF25] | 2.25 ± 0.72 | 2.38 ± 0.71
63 | KTSLLDQLTNTSGTVIGVTSCIVI [NETO1] | 3.14 ± 0.51 | 2.76 ± 0.43
64 | AEQLRIELNAEKFKNSLLQKELKK [WEE1] | 3.88 ± 0.28 | 3.94 ± 0.42
65 | SPNRSLPSPGVLCGSARPKPYDPP [ATF4] | 3.67 ± 0.19 | 3.72 ± 0.26
66 | SFVCWSRGFMEMNGRGELVESLKR [AUP1] | 2.36 ± 0.51 | 2.2 ± 0.27
67 | SEIEMAKAQRDYELKKAAYDIEVN [FLOT1] | 4.89 ± 0.29 | 5.02 ± 0.17
68 | GLGELGAALLQLVRRLQALRLERE [ESRRA] | 2.66 ± 0.21 | 2.54 ± 0.14
69 | RILLRMTLGREVMSPLQAMSSYTV [NLN] | 2.67 ± 1.1 | 2.45 ± 0.32

Row | Sequence | protein stability index (treatment: DMSO) | protein stability index (treatment: MLN4924 1 uM, 8 h)
70 | LDCEGTTNKMKSPETKQRKLSPLR [KMT2E] | 5.39 ± 0.22 | 5.05 ± 0.37
71 | GHRSIYLALKLPDGSYALNGEYTL [ADAMTS4] | 2.96 ± 0.94 | 2.63 ± 0.67
72 | PEEPLNGESYESCCPTSREAAVEA [FEM1A] | 5.37 ± 0.18 | 5.28 ± 0.31
73 | VNLQVATYSKFQPQSPDFLDITNP [UFD1] | 2.53 ± 0.23 | 2.57 ± 0.27
74 | VNRRISIVGFGLYGSIHGPTDYQV [BTBD1] | 2.65 ± 0.77 | 2.45 ± 1.1
75 | AQNACSEHGATLAVIDSEKDMNFL [CD69] | 4.62 ± 0.29 | 4.78 ± 0.27
76 | TSPALLQGTAEEDHVDLSLSCTLV [CDKN1A] | 3.85 ± 0.13 | 3.85 ± 0.18
77 | FLWGPRALIETSYVKVLHHMVKIS [MAGEA6] | 2.14 ± 0.89 | 2.59 ± 0.65
78 | FSVVRRCMKIPTGQEYAAKIINTK [CAMK2D] | 2.3 ± 0.1 | 2.31 ± 0.36
79 | NKTNKNSVSSCDQEHQSALEEAKQ [SMOC2] | 5.13 ± 0.43 | 5.57 ± 0.3
80 | LEGYRDNAYKDLAWKHGNIHLSAP [PCMTD1] | 2.99 ± 0.35 | 2.94 ± 0.21
81 | EVGKSFERHKLKRQDADAWTLYKI [SMG5] | 2.78 ± 0.4 | 2.9 ± 0.32
82 | VSDITDLELLDKIERSKIVSTMRC [PPEF2] | 3.69 ± 0.27 | 3.52 ± 0.23
83 | TASKAIIEKEYQPHVIVSTTGPNP [ADD1] | 4.47 ± 0.21 | 4.65 ± 0.16
84 | VPSLNAALMHTLQRHRDILQVIYW [GOSR1] | 2.23 ± 0.55 | 2.4 ± 0.41
85 | RCGVPDVAQFVLTEGNPRWEQTHL [MMP1] | 2.42 ± 0.4 | 2.3 ± 0.24
86 | LKPESSQQPGQDALAVKAGHGYDS [ZBED1] | 5.12 ± 0.33 | 5.22 ± 0.32
87 | GGYGSSFGGVDGLLAGGEKATMQN [KRT17] | 4.06 ± 0.12 | 4.395 ± 0.027
88 | SVSQDFPGSNLNLLTNNSGTPKDH [ETS2] | 4.8 ± 0.38 | 4.83 ± 0.27
89 | DGSDFQHRERVAMHYQMSVTLKYE [JAGN1] | 2.62 ± 0.26 | 2.87 ± 0.24
90 | GEEEAESSISSTSNEQLKVTQEPR [ZMYND11] | 5.59 ± 0.11 | 5.46 ± 0.28

Reference: the supplement of paper PMC10567573
